B1: H2-Kb / Ed46 (parent complex)
chain 1: AQSVTQPDARVTVSEGASLQLRCKYSYFGTPYLFWYVQYPRQGLQLLLKYYPGDPVVQGVNGFEAEFSKSNSSFHLRKASVHWSDWAVYFCAVGRTGGYKVVFGSGTRLLVSP
chain 2: DSGVVQSPRHIIKEKGGRSVLTCIPISGHSNVVWYQQTLGKELKFLIQHYEKVERDKGFLPSRFSVQQFDDYHSEMNMSALELEDSAMYFCASSPRHSDYTFGSGTRLLVI
chain 3: not shown
chain 4: IQKTPQIQVYSRHPPENGKPNILNCYVTQFHPPHIEIQMLKNGKKIPKVEMSDMSFSKDWSFYILAHTEFTPTETDTYACRVKHDSMAEPKTVYWDRDM
chain 5: SIINFEKL
B2: H2-Kb / B15 (parent complex)
chain 1: QQQVRQSPQSLTVWEGETAILNCSYENSAFDYFPWYQQFPGEGPALLISILSVSDKKEDGRFTIFFNKREKKLSLHIADSQPGDSATYFCAASAASNNRLTLGKGTQVVVLP
chain 2: DSGVVQSPRHIIKEKGGRSVLTCIPISGHSNVVWYQQTLGKELKFLIQHYEKVERDKGFLPSRFSVQQFDDYHSEMNMSALELEDSAMYFCASSRRADAEQFFGPGTRLTVL
chain 3: not shown
chain 4: B1 chain 4
chain 5: SIINFEKL

Among the data in publication PMC11480844 (2024) are ratio to parent values, retold here.
Also: test concentration or dose not given here.

The first experiment covers variants of B1. The experiment is described as follows: % of reporter cells activated (NFAT-GFP), raw.
Take chain 5 S1R: the ratio to parent came to 0.223.

Consider chain 5 S1E, for which the ratio to parent worked out at 0.174. Consider chain 5 S1L, for which the ratio to parent was 0.0092.

As for chain 5 S1W, the ratio to parent turned out to be 0.151. Consider chain 5 S1I, for which the ratio to parent came to 0.0213.

Consider chain 5 S1Y, for which the ratio to parent turned out to be 0.795.

As for chain 5 S1F, the ratio to parent is 0.018. On the same count and under the same terms, the figure for chain 5 S1Q is 0.0873; for chain 5 S1D it is 0.675. Turning to chain 5 S1K, the ratio to parent was 0.328. The same measure, in the same setting: under chain 5 S1G stands 0.39; under chain 5 S1M, 0.235. For chain 5 I2L, the ratio to parent is 1.38. For chain 5 I2C, the ratio to parent amounted to 1.26. In the case of chain 5 I2P, the ratio to parent came to 1.23. chain 5 I2G: the ratio to parent amounted to 1.2. In the case of chain 5 I2M, the ratio to parent is 1.17. Turning to chain 5 I2E, the ratio to parent turned out to be 1.11. As to chain 5 I2H, the ratio to parent turned out to be 0.785. Consider chain 5 I2K, for which the ratio to parent is 1.12. For the variant chain 5 I2Q, the ratio to parent is 0.775. Regarding chain 5 I2W, the ratio to parent was 0.693. The same measure, in the same setting: the figure for chain 5 I2S is 1.4; for chain 5 I2V it is 1.4; for chain 5 I2D it is 1.37. Consider chain 5 E6S, for which the ratio to parent came out at 0.249.

Take chain 5 E6N: the ratio to parent is 0.464. Consider chain 5 E6D, for which the ratio to parent is 1.02. Consider chain 5 E6P, for which the ratio to parent turned out to be 0.329. Consider chain 5 E6I, for which the ratio to parent came to 0.0119. Still for that read-out and setting: under chain 5 E6R stands 0.632.

chain 5 E6C: the ratio to parent was 0.0448. Same read-out and setting: the figure for chain 5 E6V is 0.0112; for chain 5 E6K it is 0.746. Turning to chain 5 E6M, the ratio to parent turned out to be 0.398.

With chain 5 E6Q, the ratio to parent came out at 0.475. Consider chain 5 E6G, for which the ratio to parent was 0.355. On to chain 5 E6T, for which the ratio to parent was determined as 0.0683. Take chain 5 E6Y: the ratio to parent came out at 0.119. For the variant chain 5 E6F, the ratio to parent came to 0.0998. On the same count and under the same terms, the figure for chain 5 E6H is 0.25; for chain 5 L8N it is 0.697. Same read-out and setting: the figure for chain 5 L8G is 0.703. On the same count and under the same terms, under chain 5 L8E stands 0.691.

Turning to chain 5 L8F, the ratio to parent was determined as 1.06. As for chain 5 L8V, the ratio to parent was 0.886. Consider chain 5 L8S, for which the ratio to parent is 0.783.

Turning to chain 5 L8D, the ratio to parent was determined as 0.618. For chain 5 L8R, the ratio to parent was 0.918.

With chain 5 L8T, the ratio to parent was determined as 1.01. On to chain 5 L8H, for which the ratio to parent was 0.912. As for chain 5 L8Q, the ratio to parent was 0.977. On the same count and under the same terms, the figure for chain 5 L8W is 0.918; for chain 5 L8M it is 1.08. Same read-out and setting: under chain 5 L8P stands 0.718; under chain 5 K7V, 0.353; under chain 5 K7F, 0.0438. As for chain 5 K7S, the ratio to parent was found to be 0.689. As for chain 5 K7G, the ratio to parent came out at 0.341.

For the variant chain 5 K7D, the ratio to parent turned out to be 0.0219. Take chain 5 K7M: the ratio to parent stood at 0.0863. Still for that read-out and setting: the figure for chain 5 K7R is 0.814. On to chain 5 K7H, for which the ratio to parent was 0.74.

Regarding chain 5 K7Y, the ratio to parent came to 0.446.

On to chain 5 K7P, for which the ratio to parent was determined as 0.349. In the case of chain 5 K7A, the ratio to parent came out at 0.383. Consider chain 5 K7T, for which the ratio to parent is 0.291.

As to chain 5 N4D, the ratio to parent was 0.009. Consider chain 5 N4E, for which the ratio to parent came out at 0.0143.

For chain 5 N4V, the ratio to parent was determined as 0.00323.

In the case of chain 5 N4H, the ratio to parent stood at 0.036.

chain 5 N4S: the ratio to parent turned out to be 0.00601. Still for that read-out and setting: the figure for chain 5 N4F is 0.0192; for chain 5 N4C it is 0.0356. As for chain 5 N4A, the ratio to parent was found to be 0.0038. On to chain 5 N4Q, for which the ratio to parent came out at 0.00528. For chain 5 N4I, the ratio to parent was 0.0714.

Consider chain 5 N4G, for which the ratio to parent came to 0.00595. As for chain 5 F5Y, the ratio to parent turned out to be 1.3.

With chain 5 F5V, the ratio to parent was 1.05.

For the variant chain 5 F5W, the ratio to parent amounted to 1.2. Turning to chain 5 F5Q, the ratio to parent came out at 0.757.

chain 5 F5I: the ratio to parent was determined as 1.02. In the case of chain 5 F5N, the ratio to parent was 0.955. Turning to chain 5 F5T, the ratio to parent is 1.38. As to chain 5 F5K, the ratio to parent was determined as 0.845. As to chain 5 F5A, the ratio to parent turned out to be 1.01.

Turning to chain 5 F5H, the ratio to parent stood at 1.23.

chain 5 F5E: the ratio to parent came out at 0.65.

Turning to chain 5 F5G, the ratio to parent is 0.916. On the same count and under the same terms, the figure for chain 5 F5D is 0.591. chain 5 F5P: the ratio to parent was determined as 1.17. Still for that read-out and setting: the figure for chain 5 I3P is 0.669; for chain 5 I3S it is 1.06.

Take chain 5 I3C: the ratio to parent stood at 0.689. With chain 5 I3Q, the ratio to parent turned out to be 0.383. The same measure, in the same setting: under chain 5 I3L stands 1.05; under chain 5 I3T, 0.301; under chain 5 I3V, 0.724. chain 5 I3W: the ratio to parent came to 0.64. Still for that read-out and setting: the figure for chain 5 I3F is 0.726; for chain 5 I3A it is 0.139. As for chain 5 I3N, the ratio to parent worked out at 0.34.

The variants in another experiment derive from B2. Nature of the experiment: % of reporter cells activated (NFAT-GFP), raw.
Take chain 5 S1R: the ratio to parent turned out to be 1.03.

Take chain 5 S1F: the ratio to parent came out at 0.144. On the same count and under the same terms, the figure for chain 5 S1T is 0.487; for chain 5 S1Y it is 0.727. Regarding chain 5 S1H, the ratio to parent was 0.517.

For the variant chain 5 S1M, the ratio to parent is 0.601. Consider chain 5 S1N, for which the ratio to parent came to 0.416. The same measure, in the same setting: under chain 5 S1D stands 0.898. Take chain 5 S1Q: the ratio to parent worked out at 0.961. chain 5 F5L: the ratio to parent was found to be 0.775.

Regarding chain 5 F5G, the ratio to parent was found to be 0.792.

In the case of chain 5 F5K, the ratio to parent was 0.698. With chain 5 F5S, the ratio to parent is 0.969.

Regarding chain 5 F5C, the ratio to parent was determined as 0.834. On to chain 5 F5M, for which the ratio to parent stood at 0.836.

With chain 5 F5I, the ratio to parent came out at 0.818.

Turning to chain 5 F5P, the ratio to parent was found to be 0.829.

chain 5 K7A: the ratio to parent turned out to be 0.359.

Take chain 5 K7N: the ratio to parent turned out to be 0.27. Consider chain 5 K7C, for which the ratio to parent came to 0.0553.

As to chain 5 K7P, the ratio to parent worked out at 0.377. Regarding chain 5 I2W, the ratio to parent amounted to 0.811. On the same count and under the same terms, the figure for chain 5 I2F is 0.882.

For chain 5 I2M, the ratio to parent is 0.89. Take chain 5 I2E: the ratio to parent was 0.915.

Turning to chain 5 I2T, the ratio to parent is 1.02. In the case of chain 5 L8Q, the ratio to parent came out at 0.784. As to chain 5 L8R, the ratio to parent was determined as 0.904. Consider chain 5 L8G, for which the ratio to parent was 0.75. As for chain 5 E6N, the ratio to parent was 0.195. Turning to chain 5 E6H, the ratio to parent was determined as 0.241. In the case of chain 5 E6L, the ratio to parent is 0.0519. chain 5 E6D: the ratio to parent turned out to be 0.956. Consider chain 5 N4H, for which the ratio to parent is 0.089.

In the case of chain 5 N4Q, the ratio to parent is 0.0132. In the case of chain 5 N4F, the ratio to parent turned out to be 0.202. With chain 5 N4E, the ratio to parent turned out to be 0.26. Consider chain 5 N4V, for which the ratio to parent is 0.028.

On to chain 5 N4S, for which the ratio to parent is 0.0135. As for chain 5 N4K, the ratio to parent was 0.21. Regarding chain 5 N4I, the ratio to parent amounted to 0.194. On the same count and under the same terms, under chain 5 I3Q stands 0.743. As to chain 5 I3S, the ratio to parent was 0.601. As for chain 5 I3D, the ratio to parent turned out to be 0.503. On to chain 5 I3N, for which the ratio to parent was determined as 0.0985. With chain 5 I3A, the ratio to parent worked out at 0.5. Turning to chain 5 I3P, the ratio to parent is 0.982.
